The values below come from article PMC6340890, “Transcriptional mechanism of IRF8 and PU.1 governs microglial activation in neurodegenerative condition”.

Series [1] addresses T1, IRF8;PU.1 (Mus musculus;Mus musculus, UniProt P23611;P17433 1-424;1-272, |). The series can be described thus: EMSA; synergistic; LightShift Chemiluminescent EMSA Kit; buffer, salt and pH not stated; supershift incubation 4 °C, 20 min. To be noted: protein: recombinant;recombinant; tags: Flag;Flag; copies: 1;1; label: 5'-biotin (both strands). A general note: A gel shift assay detects complexes by their altered migration in electrophoresis.

Series [2] concerns the target T1, IRF8;PU.1. Put plainly: EMSA; synergistic; supershifted by anti-IRF8 and by anti-PU.1, not by control IgG; LightShift Chemiluminescent EMSA Kit; buffer, salt and pH not stated; supershift incubation 4 °C, 20 min. To be noted: protein: recombinant;recombinant; tags: Flag;Flag; copies: 1;1; label: 5'-biotin (both strands).

T1 sequence (P23611 whole entry, chain 1 of 2, other chains not shown): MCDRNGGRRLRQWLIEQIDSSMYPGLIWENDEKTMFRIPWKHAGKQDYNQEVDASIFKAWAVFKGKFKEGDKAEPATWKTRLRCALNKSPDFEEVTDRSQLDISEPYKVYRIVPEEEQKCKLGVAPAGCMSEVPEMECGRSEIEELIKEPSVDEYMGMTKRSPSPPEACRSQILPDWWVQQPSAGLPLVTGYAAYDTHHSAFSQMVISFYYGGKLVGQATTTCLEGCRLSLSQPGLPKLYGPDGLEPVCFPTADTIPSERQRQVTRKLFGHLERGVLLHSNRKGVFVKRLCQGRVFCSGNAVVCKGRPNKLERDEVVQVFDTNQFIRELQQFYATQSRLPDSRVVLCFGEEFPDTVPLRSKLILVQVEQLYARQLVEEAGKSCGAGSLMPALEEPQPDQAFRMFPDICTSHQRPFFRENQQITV

B1: Ikbkb probe (dsDNA)
DNA 1: CCGTCCTCAGTTTCACTTCCTGTCAGTGCT
DNA 2: AGCACTGACAGGAAGTGAAACTGAGGACGG
In the case of B1, the binding result in series [1] was “binds”.

B2: Nfkb1 probe (dsDNA)
DNA 1: TCCCCCCTGGTTTCCCTTCCTGTAAATACA
DNA 2: TGTATTTACAGGAAGGGAAACCAGGGGGGA
On to B2, for which the binding result in series [1] is “binds”.

B3: Ripk2 probe (dsDNA)
DNA 1: ACAGTCTTACTTTCACTTCCTGAATTCATT
DNA 2: AATGAATTCAGGAAGTGAAAGTAAGACTGT
With B3, the binding result in series [2] is reported as “binds”.

B4: Tak1 probe (dsDNA)
DNA 1: CCTTCCATGGTTTCAGTTCCTCTTAAGGGA
DNA 2: TCCCTTAAGAGGAACTGAAACCATGGAAGG
As for B4, the binding result in series [2] is on record as “binds”.
